Results from publication PMC9680732 (Biophysical Reports, 2021).

Molecular target: linear triubiquitin (UniProt P0CG48)
Experiment: BLI

Sequence of linear triubiquitin (P0CG48 1-228): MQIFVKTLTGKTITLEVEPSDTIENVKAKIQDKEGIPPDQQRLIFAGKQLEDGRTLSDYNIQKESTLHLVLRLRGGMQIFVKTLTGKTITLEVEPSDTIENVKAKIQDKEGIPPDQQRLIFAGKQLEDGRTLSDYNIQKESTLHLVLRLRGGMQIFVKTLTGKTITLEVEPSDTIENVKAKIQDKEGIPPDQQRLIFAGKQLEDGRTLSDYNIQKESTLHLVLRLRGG

PKQRCRAPACDHFGNAKCNGYCNECFQFKQMYG (domain or fragment, biotin (singly biotinylated)) [singly biotinylated A20 zinc finger 7 (ZnF7: P758-G790)]: binds.
